Paper PMC3923060, “HCV Core Residues Critical for Infectivity Are Also Involved in Core-NS5A Complex Formation” (PLoS ONE, 2014)

Columns and labels:
[1] = molecular target: Core-Flag-R50A/K51A/R59A/R62A (hepatitis C virus genotype 2a, strain JFH1); test: co-IP; Huh7.5.1 stable cell lines expressing full-length JFH1-Luc/Neo-Core-Flag genomes (wild type or core mutants); anti-Flag M2 agarose, eluted with 3xFLAG peptide; anti-NS5A blot, quantified by IR fluorescence, three experiments
[2] = molecular target: 3xFlag-Core R50A (hepatitis C virus genotype 2a, strain JFH1); test: co-IP; SGR-JFH1 (Huh7 subgenomic JFH1 replicon) cells transfected with 3xFlag-Core (wild type or mutants); anti-Flag M2 agarose, eluted with 3xFLAG peptide; anti-NS5A blot, quantified by IR fluorescence and normalised to precipitated core and expression, three experiments
[3] = molecular target: 3xFlag-Core R62A (hepatitis C virus genotype 2a, strain JFH1); test: as above
[4] = molecular target: 3xFlag-Core R59A (hepatitis C virus genotype 2a, strain JFH1); test: as above
full-length NS5A-His [5] = molecular target: T1, full-length NS5A-His (hepatitis C virus genotype 2a, strain …, UniProt Q99IB8 1977-2442); test: pull-down; 4 µg GST protein (bait) mixed with 10 µg NS5A protein in 100 µl binding buffer (50 mM Tris-HCl pH 7.5, 100 mM NaCl, 5 mM MgCl2, 10% glycerol, 0.5% Igepal CA-630, 1 mM DTT), 3 h at 4°C, then glutathione beads 1 h; Western blot (anti-NS5A, anti-Flag), in Figure 3 quantified by IR fluorescence; details: both partners purified
T1 construct: HCV nonstructural protein 5A (NS5A), genotype 2a strain JFH1, full-length; pET-UbCHis vector; also called recombinant NS5A-His; source: E. coli BL21(DE3)pCG1, purified as described previously [60]; not shown: His6, C-terminal, kept
T1 sequence: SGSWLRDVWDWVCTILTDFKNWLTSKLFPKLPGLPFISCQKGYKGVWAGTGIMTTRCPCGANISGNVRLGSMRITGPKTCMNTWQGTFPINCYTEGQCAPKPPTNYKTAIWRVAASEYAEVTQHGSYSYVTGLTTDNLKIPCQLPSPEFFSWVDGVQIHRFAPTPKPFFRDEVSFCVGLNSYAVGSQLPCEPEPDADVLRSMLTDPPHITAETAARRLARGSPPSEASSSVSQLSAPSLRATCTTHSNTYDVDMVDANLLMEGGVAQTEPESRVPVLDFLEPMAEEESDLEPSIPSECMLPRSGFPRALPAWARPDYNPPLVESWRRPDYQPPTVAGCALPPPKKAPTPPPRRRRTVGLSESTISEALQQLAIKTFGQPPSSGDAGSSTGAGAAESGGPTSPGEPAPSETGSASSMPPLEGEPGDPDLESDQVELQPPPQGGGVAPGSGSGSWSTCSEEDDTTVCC

full-length NS5A-His [6] = molecular target: T1, full-length NS5A-His; test: pull-down; as a4, proteins treated with 1, 5 or 10 µM BMS-790052 for 30 min at 4°C; details: both partners purified

Work on “NS5A from JFH1-Luc/Neo-Core-Flag expressing cells (from UniProt Q99IB8 1977-2442) (natural protein)” yielded a percent reduction in NS5A binding against wild-type core [1] of 85%.

“subgenomic NS5A (from UniProt Q99IB8 1977-2442) (natural protein)” showed a percent reduction in NS5A binding against wild type [2] of 8%, a percent reduction in NS5A binding against wild type [3] of 17% and a percent reduction in NS5A binding against wild type [4] of 65%.

B1: GST-Core101-121-His (domain or fragment)
chain: RGSRPSWGPTDPRHRSRNVGK
notes: HCV core protein, genotype 2a strain JFH1, residues 101-121 (basic domain 3); linker as in m1; also called BD3; BD3 (101-121); not shown: GST, N-terminal, kept; His6, C-terminal, kept
B1: binds (full-length NS5A-His [5]).

B2: GST-Core1-170-His (domain or fragment)
chain: MSTNPKPQRKTKRNTNRRPEDVKFPGGGQIVGGVYLLPRRGPRLGVRTTRKTSERSQPRGRRQPIPKDRRSTGKAWGKPGRPWPLYGNEGLGWAGWLLSPRGSRPSWGPTDPRHRSRNVGKVIDTLTCGFADLMGYIPVVGAPLSGAARAVAHGVRVLEDGVNYATGNLP
notes: HCV core protein, genotype 2a strain JFH1, residues 1-170 (domains D1 and D2); pGEX-2T; also called GST-Core-His; core (D1 and D2 domains); not shown: GST, N-terminal, kept; His6, C-terminal, kept
B2: binds (full-length NS5A-His [6]).

B3: GST-Core-BD2-His (domain or fragment)
chain: PRRGPRLGVRTTRKTSERSQPRGRRQPIPKDRRSTGK
notes: HCV core protein, genotype 2a strain JFH1, residues 38-74 (basic domain 2); linker as in m1; also called GST-Core38-74-His; GST-BD2-His; not shown: GST, N-terminal, kept; His6, C-terminal, kept
B3: binds (full-length NS5A-His [5]).

B4: GST-Core2-23-His (domain or fragment)
chain: STNPKPQRKTKRNTNRRPEDVK
notes: HCV core protein, genotype 2a strain JFH1, residues 2-23 (basic domain 1); linker as in m1; also called BD1; BD1 (2-23); not shown: GST, N-terminal, kept; His6, C-terminal, kept
B4: binds (full-length NS5A-His [5]).
